Data set [1] concerns the target T1, HMfA (Methanothermus fervidus, UniProt P48781 1-69). The data set is described as follows: MST; Hill h 1.08 ± 0.19; MST: 50 mM Tris-HCl pH 8, 75 mM KCl, 20 nM DNA (40 nM diluted 1:1), 5 min at room temperature (0.2% Tween20 where noted); TPM: 50 mM Tris-HCl pH 7, 75 mM KCl. The settings on record: protein: recombinant; chain copies: 2; label: 5' Cy5 top strand; blunt.

Data set [2] deals with T2, HMfB (Methanothermus fervidus, UniProt P19267 1-69). The data set is described as follows: MST; Hill h 3.30 ± 0.97; MST: 50 mM Tris-HCl pH 8, 75 mM KCl, 20 nM DNA (40 nM diluted 1:1), 5 min at room temperature (0.2% Tween20 where noted); TPM: 50 mM Tris-HCl pH 7, 75 mM KCl. The settings on record: protein: recombinant; chain copies: 2; label: 5' Cy5 top strand; blunt.
T2 sequence (P19267 whole entry): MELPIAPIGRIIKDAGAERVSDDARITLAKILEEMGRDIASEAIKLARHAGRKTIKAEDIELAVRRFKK
Data set [3] concerns the target T3, HMfB D14A K30A E34A (Methanothermus fervidus, UniProt P19267 1-69, D14A;K30A;E34A). The data set is described as follows: MST; 0.2% Tween20; Hill h 4.09 ± 0.62; MST: 50 mM Tris-HCl pH 8, 75 mM KCl, 20 nM DNA (40 nM diluted 1:1), 5 min at room temperature (0.2% Tween20 where noted); TPM: 50 mM Tris-HCl pH 7, 75 mM KCl. The settings on record: protein: recombinant; chain copies: 4; label: 5' Cy5 top strand; blunt.

For data set [4], the target named is T1, HMfA. The data set is described as follows: MST; Hill h 1.08 ± 0.21; MST: 50 mM Tris-HCl pH 8, 75 mM KCl, 20 nM DNA (40 nM diluted 1:1), 5 min at room temperature (0.2% Tween20 where noted); TPM: 50 mM Tris-HCl pH 7, 75 mM KCl. The settings on record: protein: recombinant; chain copies: 2; label: 5' Cy5 top strand; blunt.
Data set [5] has as its target T3, HMfB D14A K30A E34A. In words: MST; 0.2% Tween20; Hill h 3.51 ± 0.77; MST: 50 mM Tris-HCl pH 8, 75 mM KCl, 20 nM DNA (40 nM diluted 1:1), 5 min at room temperature (0.2% Tween20 where noted); TPM: 50 mM Tris-HCl pH 7, 75 mM KCl. The conditions noted are these: protein: recombinant; chain copies: 4; label: 5' Cy5 top strand; blunt.
Data set [6] has as its target T2, HMfB. In words: MST; first (specific) step; Hill h 1.24 ± 0.91; MST: 50 mM Tris-HCl pH 8, 75 mM KCl, 20 nM DNA (40 nM diluted 1:1), 5 min at room temperature (0.2% Tween20 where noted); TPM: 50 mM Tris-HCl pH 7, 75 mM KCl. The conditions noted are these: protein: recombinant; chain copies: 2; label: 5' Cy5 top strand; blunt.
The target of data set [7] is T2, HMfB. The data set is described as follows: MST; second (nonspecific) step; Hill h 1.44 ± 0.47; MST: 50 mM Tris-HCl pH 8, 75 mM KCl, 20 nM DNA (40 nM diluted 1:1), 5 min at room temperature (0.2% Tween20 where noted); TPM: 50 mM Tris-HCl pH 7, 75 mM KCl. The conditions noted are these: protein: recombinant; chain copies: 2; label: 5' Cy5 top strand; blunt.
Data set [8] deals with T1, HMfA. In words: MST; Hill h 0.992 ± 0.21; MST: 50 mM Tris-HCl pH 8, 75 mM KCl, 20 nM DNA (40 nM diluted 1:1), 5 min at room temperature (0.2% Tween20 where noted); TPM: 50 mM Tris-HCl pH 7, 75 mM KCl. The settings on record: protein: recombinant; chain copies: 2; label: 5' Cy5 top strand; blunt.
Data set [9] has as its target T2, HMfB. The data set is described as follows: MST; first (specific) step; Hill h 7.45 ± 3.5; MST: 50 mM Tris-HCl pH 8, 75 mM KCl, 20 nM DNA (40 nM diluted 1:1), 5 min at room temperature (0.2% Tween20 where noted); TPM: 50 mM Tris-HCl pH 7, 75 mM KCl. The conditions noted are these: protein: recombinant; chain copies: 2; label: 5' Cy5 top strand; blunt.
Data set [10] addresses T2, HMfB. The data set is described as follows: MST; second (nonspecific) step; Hill h 0.564 ± 0.30; error exceeds value; MST: 50 mM Tris-HCl pH 8, 75 mM KCl, 20 nM DNA (40 nM diluted 1:1), 5 min at room temperature (0.2% Tween20 where noted); TPM: 50 mM Tris-HCl pH 7, 75 mM KCl. The conditions noted are these: protein: recombinant; chain copies: 2; label: 5' Cy5 top strand; blunt.

Data set [11] deals with T1, HMfA. The data set is described as follows: MST; Hill h 1.23 ± 0.16; MST: 50 mM Tris-HCl pH 8, 75 mM KCl, 20 nM DNA (40 nM diluted 1:1), 5 min at room temperature (0.2% Tween20 where noted); TPM: 50 mM Tris-HCl pH 7, 75 mM KCl. The conditions noted are these: protein: recombinant; chain copies: 2; label: 5' Cy5 top strand; blunt.
For data set [12], the target named is T2, HMfB. The data set is described as follows: MST; second (nonspecific) step; Hill h 1.30 ± 0.38; MST: 50 mM Tris-HCl pH 8, 75 mM KCl, 20 nM DNA (40 nM diluted 1:1), 5 min at room temperature (0.2% Tween20 where noted); TPM: 50 mM Tris-HCl pH 7, 75 mM KCl. The settings on record: protein: recombinant; chain copies: 2; label: 5' Cy5 top strand; blunt.

Experimental findings from article PMC10151503, “Specific DNA binding of archaeal histones HMfA and HMfB” are described below.

T1 sequence (P48781 whole entry): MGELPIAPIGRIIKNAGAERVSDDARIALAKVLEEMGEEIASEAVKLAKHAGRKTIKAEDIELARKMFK
T3 sequence (P19267 whole entry D14A/K30A/E34A): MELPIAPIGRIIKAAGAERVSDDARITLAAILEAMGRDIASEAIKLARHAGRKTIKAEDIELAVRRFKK

B1: Nonspecific 78 bp (dsDNA)
DNA 1: CGGCGCAAATTCGTGACCAGTTGCATCAGCTGCGTGAGCTGTTTATCGCAGCATCGTAACAGGATAGTGAAGAAGACT
DNA 2: AGTCTTCTTCACTATCCTGTTACGATGCTGCGATAAACAGCTCACGCAGCTGATGCAACTGGTCACGAATTTGCGCCG
Turning to B1, the Kd was 16.5 ± 6.7 µM with HMfA [1], 0.915 ± 0.089 µM with HMfB [2] and 22 ± 0.71 µM in the data set with HMfB D14A K30A E34A [3].

B2: Clone20 78 bp (dsDNA)
DNA 1: GGATCCCTGTCGGCACAGTTGAGCGATCAAAAACGCCGTAGAACGCTTTAATTGATAATCAAAGGCCGCAGAGAGCTC
DNA 2: GAGCTCTCTGCGGCCTTTGATTATCAATTAAAGCGTTCTACGGCGTTTTTGATCGCTCAACTGTGCCGACAGGGATCC
Consider B2, for which the Kd with HMfA [4] worked out at 3.75 ± 0.1 µM; with HMfB D14A K30A E34A [5], 19.6 ± 1.19 µM; in the data set with HMfB [6] it was 0.243 ± 0.16 µM; with HMfB [7], 2.99 ± 0.81 µM.

B3: Clone20R 78 bp (dsDNA)
DNA 1: CGGCGCAAATTCGTGACCAGTTGCATCAGCTGCGTGCGTAGAACGCTTTAATTGATAATCAAAGGCCGCAGAGAGCTC
DNA 2: GAGCTCTCTGCGGCCTTTGATTATCAATTAAAGCGTTCTACGCACGCAGCTGATGCAACTGGTCACGAATTTGCGCCG
For B3, the Kd was determined as 7.34 ± 2.8 µM with HMfA [8], 0.66 ± 0.047 µM with HMfB [9] and 12.3 ± 27 µM with HMfB [10].

B4: Clone20L 78 bp (dsDNA)
DNA 1: GGATCCCTGTCGGCACAGTTGAGCGATCAAAAACGCCGTAGATTATCGCAGCATCGTAACAGGATAGTGAAGAAGACT
DNA 2: AGTCTTCTTCACTATCCTGTTACGATGCTGCGATAATCTACGGCGTTTTTGATCGCTCAACTGTGCCGACAGGGATCC
Consider B4, for which the Kd stood at 8.09 ± 1.4 µM with HMfA [11] and 4.11 ± 1 µM with HMfB [12].
